The chains are these.
B1: chymotryptic peptide of FGF4, region 179–206 (peptide)
peptide: IALSKNGKTKKGNRVSPTMKVTHFLPRL
notes: FGF4 residues 179-206; also called peptide F4_1; 4_1; source: digest of recombinant FGF4 with immobilized bovine chymotrypsin
B2: chymotryptic peptide of FGF4, region 136–150 (peptide)
peptide: FVAMSSKGKLYGSPF
notes: FGF4 residues 136-150; also called peptide F4_2; 4_2; source: digest of recombinant FGF4 with immobilized bovine chymotrypsin
B3: PepSpot peptide no. 15 of FGF4 (peptide)
peptide: SRFFVAMSSKGKLYG
modifications: also: covalently bound to cellulose-β-alanine membrane
notes: also called peptide 15; source: synthetic peptide on cellulose membrane (PepSpot, JPT, Berlin)
B4: PepSpot peptide no. 21 of FGF4 (peptide)
peptide: RVSPTMKVTHFLPRL
modifications: also: covalently bound to cellulose-β-alanine membrane
notes: also called peptide 21; source: synthetic peptide on cellulose membrane (PepSpot, JPT, Berlin)
B5: PepSpot peptide no. 10 of FGF4 (peptide)
peptide: LRRLYCNVGIGFHLQ
modifications: also: covalently bound to cellulose-β-alanine membrane
notes: also called peptide F4_3; 4_3; source: synthetic peptide on cellulose membrane (PepSpot, JPT, Berlin)
B6: PepSpot peptide no. 20 of FGF4 (peptide)
peptide: KNGKTKKGNRVSPTM
modifications: also: covalently bound to cellulose-β-alanine membrane
notes: source: synthetic peptide on cellulose membrane (PepSpot, JPT, Berlin)
B7: PepSpot peptide no. 19 of FGF4 (peptide)
peptide: KYPGMFIALSKNGKT
modifications: also: covalently bound to cellulose-β-alanine membrane
notes: also called peptide 19; source: synthetic peptide on cellulose membrane (PepSpot, JPT, Berlin)
B8: FGF4 (ligand, UniProt P08620 31-206, looked up)
chain: APTAPNGTLEAELERRWESLVALSLARLPVAAQPKEAAVQSGAGDYLLGIKRLRRLYCNVGIGFHLQALPDGRIGGAHADTRDSLLELSPVERGVVSIFGVASRFFVAMSSKGKLYGSPFFTDECTFKEILLPNNYNAYESYKYPGMFIALSKNGKTKKGNRVSPTMKVTHFLPRL
notes: FGF4; Denatured by SDS-PAGE and held on PVDF in the overlay; native analyte in SPR; also called recombinant FGF4; fibroblast growth factor 4; source: recombinant, provided by Marta Minkiewicz and Martyna Sochacka from Protein Engineering Group
B9: peptibodyF4_3 (Fc fusion)
chain: GLRRLYCNVGIGFHLQ
notes: additional glycine residue as a spacer between the Fc domain and the targeting peptide; peptide F4_3, FGF4 residues 83-97; Peptide fused at the C-terminus of the Fc domain of human IgG1 (vector pLEV113); not shown: Fc (human IgG1), N-terminal, kept
B10: peptibodyF4_1 (Fc fusion)
chain: GIALSKNGKTKKGNRVSPTMKVTHFLPRL
notes: additional glycine residue as a spacer between the Fc domain and the targeting peptide; peptide F4_1, FGF4 residues 179-206; Peptide fused at the C-terminus of the Fc domain of human IgG1 (vector pLEV113); Labelled with DyLite650 for flow cytometry; not shown: Fc (human IgG1), N-terminal, kept

No end group written: not given here.

What is called Kd is the equilibrium constant for the complex coming apart.

In the first experiment the target is T1, extracellular domain (ECD) of FGFR1 fused to the Fc domain of human IgG1 (UniProt P11362 22-376, HiLyte488 dye (labelled form, used for the membrane overlay of FGFs and the PepSpot assay)).
T1 construct: FGFR1 (fibroblast growth factor receptor 1), extracellular domain; Unlabelled in the pull-down (held on Protein A resin) and in SPR (amine-coupled); also called FGFR1-Fc; source: recombinant, produced as described previously (Sokolowska-Wedzina et al., 2014)
T1 sequence (looked up): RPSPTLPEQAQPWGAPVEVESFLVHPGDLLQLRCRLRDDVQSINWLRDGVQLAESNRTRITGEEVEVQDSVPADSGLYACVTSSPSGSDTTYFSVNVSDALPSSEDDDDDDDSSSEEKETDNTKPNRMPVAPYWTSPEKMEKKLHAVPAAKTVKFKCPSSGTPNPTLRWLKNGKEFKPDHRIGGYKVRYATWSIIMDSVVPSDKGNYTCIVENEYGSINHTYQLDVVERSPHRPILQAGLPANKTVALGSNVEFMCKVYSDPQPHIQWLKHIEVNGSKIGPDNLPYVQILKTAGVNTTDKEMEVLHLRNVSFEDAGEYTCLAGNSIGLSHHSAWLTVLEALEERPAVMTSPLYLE
Kind of experiment: affinity purification with mass spectrometry; chymotryptic peptides of FGF4 incubated 1 h at 4°C with ECD_FGFR1-Fc or, in parallel, Fc domain immobilized on rProtein A Fast Flow resin; washed (0.1 M NaCl, phosphate); eluted with 0.1 M sodium citrate pH 3.5; peptides identified by MS. Particulars: both partners purified.
In the case of B1, the binding result is reported as “binds”. As to B2, the binding result is “binds”.

The next experiment concerns the target T1, extracellular domain (ECD) of FGFR1 …. The experiment can be described thus: peptide or protein array; PepSpot: 15-residue peptides spanning FGF4 covalently bound to a cellulose membrane; blocked with 3% BSA in TBS-T; probed with HiLyte488-labelled FGFR1-Fc or Fc domain (0.1 µg/ml in blocking buffer) overnight at 4°C. Particulars: both partners purified.
With B3, the binding result is “binds”. As for B4, the binding result is listed as “binds”. On the same count and under the same terms, in the case of B5 it was “binds”.

On to B6, for which the binding result is “binds”.

As for B7, the binding result is reported as “binds”.

A further experiment has the same target. The experiment can be described thus: SPR; Biacore 3000, 25°C, PBS with 0.05% Tween20, 0.1% BSA, 0.02% NaN3, pH 7.4; FGFR1 ECD-Fc amine-coupled on CM5 at 8800 RU; peptibodies 0.15-4.8 μM or FGF4 75-600 nM injected at 30 μl/min; steady-state affinity analysis for the peptibodies. The settings on record: both partners purified.
B8 registered a Kd of 65.7 nM.

With B9, the Kd was 1090 nM.

B10 registered a Kd of 2990 nM.

The record behind these values is article PMC8636100, “Peptibody Based on FGFR1-Binding Peptides From the FGF4 Sequence as a Cancer-Targeting Agent” (Frontiers in Pharmacology, 2021).
